Data reported in paper PMC5892938, “SARNAclust: Semi-automatic detection of RNA protein binding motifs from immunoprecipitation data”.
Changes are numbered by the printed parent chain.

B1: Consensus Loop Only A (CLA) (structured_RNA)
RNA: GGUCACGUCUCAAUCAACUCAUCCCCAGGAGUUUACUCCUGUUUAGUCAACAGCUCGCAGUCAAG
B2: consensus (structured_RNA)
RNA: GGUCACGUCUCAAUCAACUCCCAAAGGCUCUUCUUAGAGCCACCCAUCAACAGCUCGCAGUCAAG
B3: consensus (structured_RNA)
RNA: B2 RNA with C28U, C33U, U35C, A38G, G39A
B4: consensus (structured_RNA)
RNA: B2 RNA with C28U, C33U, U35C
B5: consensus (structured_RNA)
RNA: B2 RNA with C28U, U35A
B6: consensus (structured_RNA)
RNA: B2 RNA with C28U, C30U, U35A, G37A
B7: consensus (structured_RNA)
RNA: B2 RNA with C28U, U35C, G39A
B8: consensus (structured_RNA)
RNA: B2 RNA with C28U, C30U, C33U, G37A, G39A
B9: consensus (structured_RNA)
RNA: B2 RNA with C28U, U29C, C33U, U35G, A38G
B10: consensus (structured_RNA)
RNA: B2 RNA with C28U, C30U, C33U, U35C, G37A
B11: consensus (structured_RNA)
RNA: B2 RNA with C28U, C33U, U35C, A38G
B12: consensus (structured_RNA)
RNA: B2 RNA with C28U, C30U, C33U, U35C, G37A, G39A
B13: consensus (structured_RNA)
RNA: B2 RNA with C28U, C30U, U35C, G37A, G39A
B14: consensus (structured_RNA)
RNA: B2 RNA with C30U, U35G, G37A
B15: consensus (structured_RNA)
RNA: B2 RNA with C28U, C30U, G37A, G39A
B16: consensus (structured_RNA)
RNA: B2 RNA with C28U, C30U, U35A, G37A, G39A
B17: consensus (structured_RNA)
RNA: B2 RNA with C30U, U35C, G37A, A38G
B18: consensus (structured_RNA)
RNA: B2 RNA with C30U, C33U, G37A
B19: consensus (structured_RNA)
RNA: B2 RNA with C28U, U29C, U35G, A38G, G39A
B20: consensus (structured_RNA)
RNA: B2 RNA with C28U, C33U, U35A
B21: consensus (structured_RNA)
RNA: B2 RNA with U29C, U35C, A38G
B22: consensus (structured_RNA)
RNA: B2 RNA with C28U, U29C, C30U, C33U, G37A, A38G
B23: consensus (structured_RNA)
RNA: B2 RNA with A38G
B24: consensus (structured_RNA)
RNA: B2 RNA with C28U, U29C, C33U, A38G
B25: consensus (structured_RNA)
RNA: B2 RNA with C30U, G37A
B26: consensus (structured_RNA)
RNA: B2 RNA with C28U, U35C
B27: consensus (structured_RNA)
RNA: B2 RNA with C28U, U29C, C33U, U35G, A38G, G39A
B28: consensus (structured_RNA)
RNA: B2 RNA with C28U, C30U, C33U, U35A, G37A
B29: consensus (structured_RNA)
RNA: B2 RNA with C28U, C33U
B30: consensus (structured_RNA)
RNA: B2 RNA with C30U, C33U, G37A, A38G
B31: consensus (structured_RNA)
RNA: B2 RNA with C33U, U35G
B32: consensus (structured_RNA)
RNA: B2 RNA with C28U, U29C, C30U, G37A, A38G
B33: consensus (structured_RNA)
RNA: B2 RNA with C33U, A38G
B34: consensus (structured_RNA)
RNA: B2 RNA with C28U, C33U, A38G, G39A
B35: consensus (structured_RNA)
RNA: B2 RNA with C30U, U35A, G37A, A38G
B36: consensus (structured_RNA)
RNA: B2 RNA with C28U, U35A, A38G, G39A
B37: consensus (structured_RNA)
RNA: B2 RNA with U35C, A38G
B38: consensus (structured_RNA)
RNA: B2 RNA with C28U, U29C, C30U, C33U, U35C, G37A, A38G, G39A
B39: consensus (structured_RNA)
RNA: B2 RNA with C28U, U35A, A38G
B40: consensus (structured_RNA)
RNA: B2 RNA with U35G
B41: consensus (structured_RNA)
RNA: B2 RNA with C33U, U35A, A38G
B42: consensus (structured_RNA)
RNA: B2 RNA with C28U, C33U, U35A, A38G, G39A
B43: consensus (structured_RNA)
RNA: B2 RNA with C28U, U29C, C30U, U35C, G37A, A38G
B44: consensus (structured_RNA)
RNA: B2 RNA with C28U, U29C, A38G
B45: consensus (structured_RNA)
RNA: B2 RNA with C28U, C33U, G39A
B46: consensus (structured_RNA)
RNA: B2 RNA with C28U, U29C, C30U, U35G, G37A, A38G, G39A
B47: consensus (structured_RNA)
RNA: B2 RNA with C30U, G37A, A38G
B48: consensus (structured_RNA)
RNA: B2 RNA with C28U, C33U, U35A, A38G
B49: consensus (structured_RNA)
RNA: B2 RNA with C28U, U35A, G39A
B50: consensus (structured_RNA)
RNA: B2 RNA with U29C, C30U, C33U, U35A, G37A, A38G
B51: consensus (structured_RNA)
RNA: B2 RNA with C28U, G39A
B52: consensus (structured_RNA)
RNA: B2 RNA with U29C, U35A, A38G
B53: consensus (structured_RNA)
RNA: B2 RNA with C28U, C30U, C33U, U35A, G37A, G39A
B54: consensus (structured_RNA)
RNA: B2 RNA with C30U, C33U, U35G, G37A
B55: consensus (structured_RNA)
RNA: B2 RNA with C28U, U35C, A38G, G39A

Assays:
[1] = biological target: T1, GST-SBP-SLBP (stem-loop binding protein) (Homo sapiens, UniProt Q14493 1-270); assay: EMSA; 320 nM protein, 1 nM RNA, 1 mM Mg2+; EMSA: 10 mM HEPES pH 7.3, 20 mM KCl, 1 mM MgCl2, 20 mM DTT, 5% glycerol, 30 min, 4°C. RBNS: 25 mM Tris pH 7.5, 150 mM KCl, 0.1% Tween, 0.5 mg/mL BSA, 3 mM MgCl2, 1 mM DTT; settings: protein: recombinant; tags: N-terminal GST and SBP (pGEX6P1-SBP); label: 3' biotin; hairpin
[2] = biological target: T1, GST-SBP-SLBP (stem-loop binding protein); assay: targeted RNA Bind-n-Seq; RBNS binding buffer: 25 mM Tris pH 7.5, 150 mM KCl, 3 mM MgCl2, 0.1% Tween, 0.5 mg/mL BSA, 1 mM DTT; 27 nM protein, 750 pM RNA pool; temperature not stated; high values mean tight binding; settings: protein: recombinant; tags: N-terminal GST and SBP (pGEX6P1-SBP)
In short: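 The GST-SBP-tagged protein was expressed in Rosetta(DE3) pLysS E. coli, glutathione-purified and incubated at 27 nM with 750 pM of a designed, T7-transcribed RNA oligo pool in RBNS binding buffer. Bound RNA was reverse transcribed with a 10-nucleotide barcoded primer, PCR-amplified and sequenced on a MiSeq with 200-cycle paired-end reads. Reads were joined with FLASH, aligned with HISAT2 and collapsed by barcode. The binding signal is the DEseq log2 fold change of read counts per sequence.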

Row | Binder | binding result [1] | binding signal [2] [log2 fold change]
1 | B1 | no binding | 
2 | B2 |  | 3.11 ± 0.136
3 | B3 |  | 3 ± 0.116
4 | B4 |  | 2.98 ± 0.121
5 | B5 |  | 2.77 ± 0.139
6 | B6 |  | 2.61 ± 0.133
7 | B7 |  | 3.02 ± 0.121
8 | B8 |  | 2.51 ± 0.271
9 | B9 |  | 2.63 ± 0.152
10 | B10 |  | 2.7 ± 0.146
11 | B11 |  | 2.49 ± 0.153
12 | B12 |  | 3.04 ± 0.195
13 | B13 |  | 2.81 ± 0.12
14 | B14 |  | 2.53 ± 0.134
15 | B15 |  | 2.59 ± 0.138
16 | B16 |  | 3.04 ± 0.144
17 | B17 |  | 2.96 ± 0.136
18 | B18 |  | 2.93 ± 0.199
19 | B19 |  | 2.83 ± 0.137
20 | B20 |  | 2.97 ± 0.121
21 | B21 |  | 3.69 ± 0.158
22 | B22 |  | 2.89 ± 0.126
23 | B23 |  | 2.44 ± 0.146
24 | B24 |  | 2.9 ± 0.135
25 | B25 |  | 3 ± 0.122
26 | B26 |  | 2.76 ± 0.132
27 | B27 |  | 3.06 ± 0.144
28 | B28 |  | 2.53 ± 0.247

Row | Binder | binding result [1] | binding signal [2] [log2 fold change]
29 | B29 |  | 2.54 ± 0.128
30 | B30 |  | 2.7 ± 0.125
31 | B31 |  | 2.84 ± 0.154
32 | B32 |  | 2.73 ± 0.134
33 | B33 |  | 2.74 ± 0.145
34 | B34 |  | 2.58 ± 0.123
35 | B35 |  | 2.99 ± 0.126
36 | B36 |  | 2.79 ± 0.124
37 | B37 |  | 3.04 ± 0.124
38 | B38 |  | 3.61 ± 0.112
39 | B39 |  | 2.42 ± 0.134
40 | B40 |  | 2.5 ± 0.154
41 | B41 |  | 3.07 ± 0.12
42 | B42 |  | 2.99 ± 0.127
43 | B43 |  | 2.87 ± 0.126
44 | B44 |  | 2.76 ± 0.147
45 | B45 |  | 2.84 ± 0.113
46 | B46 |  | 2.75 ± 0.139
47 | B47 |  | 2.45 ± 0.137
48 | B48 |  | 2.44 ± 0.142
49 | B49 |  | 3.04 ± 0.122
50 | B50 |  | 3.68 ± 0.122
51 | B51 |  | 2.63 ± 0.139
52 | B52 |  | 3.65 ± 0.165
53 | B53 |  | 2.88 ± 0.264
54 | B54 |  | 2.83 ± 0.141
55 | B55 |  | 2.79 ± 0.125
